The supplement of paper PMC10567573

B1: HMOX1 (parent)
chain: YHIYVALEEEIERNKESPVFAPVY
B2: FEM1A (parent)
chain: NIVEYLIQEQPGQEQVAGGEAQPG

Variants of: B1
Test: protein stability index of a GFP-peptide fusion (GPS, HEK-293T) (PSI 1-6); higher = more stable
Settings: c terminus: a fixed tail appended
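Further: lentivirally expressed fusions sorted by FACS into six bins by GFP to DsRed ratio, PSI derived from sequencing read proportions per bin multiplied by bin number.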

Protein stability index, by site and new letter:
A6: E 1.88; N 1.59; K 2.42; Y 2.62; P 1.99; R 1.7; I 2.02; T 1.82; Q 2.42; S 1.74; L 2.1; M 2; C 1.64; H 3.14; F 3.88; D 1.81; V 3.22; W 2.2
I3: F 2.91; R 2.43; W 2.12; E 2.33; Q 2.27; A 1.42; S 2.26; L 1.92; M 1.77; N 2.12; Y 1.91; H 2.29; K 1.91; P 2.06; G 2.77; C 3.57; T 1.92; V 2.18; D 2.27
Y1: E 4.37; W 2.59; H 2.5; P 2.46; S 2.81; F 2.03; I 3.18; G 2.26; T 3.71; M 2.35; V 1.67; Q 2.78; A 2.6; R 2.73; K 2.57; C 1.89; D 4.59; N 3.93; L 1.64
L7: M 1.62; S 1.56; E 1.76; G 2.48; R 1.67; F 1.97; Q 2.16; H 1.49; K 2.2; N 1.88; D 2.03; Y 2.02; C 2.75; P 1.59; A 2.34; V 2.93; T 1.88; W 2.2; I 1.76
E9: A 1.91; G 2.06; D 1.88; S 1.87; H 1.58; Y 1.98; K 2.14; I 1.62; M 1.72; R 2.02; P 2.6; F 2.43; T 1.7; Q 1.75; L 2.57; N 2.26
V5: A 3.79; K 3.47; N 3.59; R 3.13; E 4.87; F 1.63; M 2.79; S 2.67; H 2.34; D 4.82; T 3.39; G 2.23; L 2.29; C 1.79; I 1.94; Q 3.94; W 2.12; Y 1.47; P 2.43
H2: A 2.34; E 3.12; F 2.25; L 2.17; I 1.51; Q 3.32; G 2.57; M 2.17; V 2.59; N 2.7; P 2.62; S 2.46; W 1.38; C 1.73; T 2.18; R 2.72; Y 1.89; D 3.19; K 2.61
E8: A 2.31; V 2.3; Y 1.05; Q 3.23; K 2.07; M 4.06; G 3.48; P 2.49; F 2.43; L 2.49; T 2.19; N 1.94; I 2.51; H 2.18; S 3.74; R 2.42; D 1.53
E10: F 1.78; L 2.27; H 1.97; M 1.77; I 1.74; C 1.93; G 1.54; K 1.99; D 2.93; A 2.59
Y4: A 2.34; H 2.01; P 1.78; E 2.09; S 1.58; I 1.49; G 1.64; N 2.03; M 1.36; Q 2.35; F 4.8; T 1.59; K 2.41; D 2.29; L 2.26; R 1.57

Variants of: B2
Test: as above
Settings: c terminus: a fixed tail appended

Protein stability index: each site, then its substitutions
G18: P 4.3; Y 3.36; M 4.31; E 4.9; C 3.8; N 4.16; L 3.54; W 3.12; A 4.2; V 3.61; T 4.2; I 3.85; K 3.75; F 2.94; Q 4.7; S 3.78; D 5.01; R 4.15; H 4.47
P23: Y 3.59; E 4.74; T 4.14; Q 3.7; C 3.98; K 4.29; M 4.33; V 4.09; I 3.94; R 3.66; W 3.03; S 4.46; A 4.93; D 4.66; H 3.98; N 4.25; G 4.19; L 4.24; F 3.66
V16: Y 4.05; N 3.87; M 4.68; T 4.42; P 4.29; R 4.2; Q 4.3; L 3.94; W 3.81; S 3.86
G19: V 3.96; T 4.18; C 4.06; H 4.04; K 4.22; Q 4.09; Y 3.47; F 3.31; L 3.6; W 2.99; R 3.66; M 3.72; I 3.23; D 4.75; S 4.65; N 4.43; P 4.16; A 4.24; E 5.05
G24: H 4.28; E 4.03; S 3.86; T 4.17; Y 3.51; V 3.29; I 4.03; Q 4.37; P 4.12; F 3.76; N 4.29; L 4.05; C 4.17; A 3.67; D 4.62; W 2.86; M 3.86; R 3.98; K 3.94
E20: N 3.73; C 3.68; M 3.13; H 4.1; D 4.59; G 4.38; K 4.25; I 3.53; V 3.49; Q 3.9; S 3.41; L 3.54; Y 2.34; W 2.62; R 3.79; F 3.46; P 3.79; A 3.89; T 3.63
A17: Y 3.68; W 2.73; H 4.38; V 3.68; S 4.72; F 3.59; C 3.37; D 4.97; T 3.91; M 3.96; G 4.71; N 5.16; I 3.87; P 4.24; E 4.6; K 4.19; L 3.33; R 3.5; Q 4.07
A21: M 4.16; F 4.41; R 4.19; P 4.27; S 3.83; V 4.15; G 3.86; D 4.53; N 4.7; I 3.91; W 3.03; T 4.67; E 4.76; C 4.09; L 3.95; Q 4.05; K 4.28; H 3.77; Y 4.03
Q22: N 4.22; A 4.1; K 4.08; Y 2.78; D 4.56; F 3.24; H 3.94; C 4.58; P 4.02; W 2.51; M 4.35; G 4.33; L 4.16; S 4.53; I 3.66; V 4.35; R 3.94; T 3.91; E 4.82
